Measurements from patent US20160039904A1, “STABILIZED SINGLE HUMAN CD4 DOMAINS AND FUSION PROTEINS” (priority 2013, published 2016).

How the values were obtained:
[1] = target: gp140Con-s (HIV-1); experiment: ELISA (OD 450 nm) on Cons gp140 (gp140Con-s), sCD4Fc titrated [A]
[2] = target: HIV-1 Env of isolate KNH1144.EC1 (HIV-1); experiment: cell-based or functional assay
[3] = target: HIV-1 Env of isolate CAM0015BBY.EC3 (HIV-1); experiment: cell-based or functional assay
[4] = target: HIV-1 Env of isolate GXE (HIV-1); experiment: cell-based or functional assay
[5] = target: HIV-1 Env of isolate N1 1046.e3 PV (HIV-1); experiment: cell-based or functional assay
[6] = target: HIV-1 Env of isolate A07412VRC12A (HIV-1); experiment: cell-based or functional assay
[7] = target: HIV-1 Env of isolate KNH1088.EC5 (HIV-1); experiment: cell-based or functional assay
[8] = target: HIV-1 Env of isolate Bal.EC1 TC (HIV-1); experiment: cell-based or functional assay
[9] = target: HIV-1 Env of isolate PBL286.VRC36aPV (HIV-1); experiment: cell-based or functional assay
[10] = target: HIV-1 Env of isolate CM240.EC1 (HIV-1); experiment: cell-based or functional assay
[11] = target: HIV-1 Env of isolate IIIB (HIV-1); experiment: cell-based or functional assay
[12] = target: HIV-1 Env of isolate 55815.EC3 (HIV-1); experiment: cell-based or functional assay
[13] = target: HIV-1 Env of isolate GXC (HIV-1); experiment: cell-based or functional assay
[14] = target: HIV-1 Env of isolate NL4-3 (HIV-1); experiment: cell-based or functional assay
[15] = target: HIV-1 Env of isolate 57128.VRC18 (HIV-1); experiment: cell-based or functional assay
[16] = target: HIV-1 Env of isolate JRCSF (HIV-1) (UniProt P20871); experiment: cell-based or functional assay
HIV-1 Env of isolate JRCSF (HIV-1), sequence (P20871 32-848 limits assumed): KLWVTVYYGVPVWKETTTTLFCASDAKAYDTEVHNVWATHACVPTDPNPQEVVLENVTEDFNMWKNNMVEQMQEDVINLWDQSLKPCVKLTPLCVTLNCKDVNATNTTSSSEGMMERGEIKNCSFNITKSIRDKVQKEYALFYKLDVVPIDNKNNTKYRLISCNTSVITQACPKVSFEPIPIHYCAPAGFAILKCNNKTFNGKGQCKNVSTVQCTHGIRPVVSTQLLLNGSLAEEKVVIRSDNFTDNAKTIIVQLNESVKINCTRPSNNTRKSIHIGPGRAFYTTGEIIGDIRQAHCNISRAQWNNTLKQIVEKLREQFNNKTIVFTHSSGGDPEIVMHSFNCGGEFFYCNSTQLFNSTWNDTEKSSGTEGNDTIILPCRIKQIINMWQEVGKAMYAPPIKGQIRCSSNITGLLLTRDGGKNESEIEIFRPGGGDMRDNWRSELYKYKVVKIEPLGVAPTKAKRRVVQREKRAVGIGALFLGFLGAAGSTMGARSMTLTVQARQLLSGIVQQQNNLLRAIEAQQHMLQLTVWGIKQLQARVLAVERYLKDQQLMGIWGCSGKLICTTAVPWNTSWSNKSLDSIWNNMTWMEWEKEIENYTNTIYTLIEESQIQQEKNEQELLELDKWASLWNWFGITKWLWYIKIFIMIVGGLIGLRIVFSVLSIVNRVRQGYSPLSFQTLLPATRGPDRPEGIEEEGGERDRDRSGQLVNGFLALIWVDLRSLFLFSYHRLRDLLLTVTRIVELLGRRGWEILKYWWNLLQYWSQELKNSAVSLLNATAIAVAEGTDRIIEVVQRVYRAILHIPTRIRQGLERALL

[17] = target: HIV-1 Env of isolate Z2Z6 (HIV-1); experiment: cell-based or functional assay
[18] = target: HIV-1 Env of isolate R2 (HIV-1); experiment: cell-based or functional assay
[19] = target: HIV-1 Env of isolate CM243 (HIV-1); experiment: cell-based or functional assay
[20] = target: HIV-1 Env of isolate AD8 (HIV-1); experiment: cell-based or functional assay
[21] = target: HIV-1 Env of isolate GS-015.EC12 (HIV-1); experiment: cell-based or functional assay
[22] = target: HIV-1 Env of isolate BZ167.ec9 (HIV-1); experiment: cell-based or functional assay
[23] = target: HIV-1 Env of isolate 89.6 (HIV-1); experiment: cell-based or functional assay
[24] = target: HIV-1 Env of isolate JRFL (HIV-1); experiment: cell-based or functional assay
[25] = target: HIV-1 Env of isolate Bal (HIV-1); experiment: cell-based or functional assay
[26] = target: HIV-1 Env of isolate 92UG037.8 (HIV-1); experiment: cell-based or functional assay

D1D2mFc (from UniProt P01730 26-203) (Fc fusion)
EC50 (read off the curve) [1]: 0.3 nM

VRC01 (antibody)
IC90, neutralization in TZM-bl cell-based assay [2]: 9.5 nM
IC50, neutralization in TZM-bl cell-based assay [3]: 21 nM
IC90, neutralization in TZM-bl cell-based assay [3]: > 167 nM
IC50, neutralization of pseudotyped HIV-1 [4]: 2 nM
IC90, neutralization of pseudotyped HIV-1 [4]: 26 nM
IC50, neutralization in TZM-bl cell-based assay [5]: 4.2 nM
IC50, neutralization in TZM-bl cell-based assay [6]: 1.3 nM
IC90, neutralization in TZM-bl cell-based assay [6]: 6 nM
IC50, neutralization in TZM-bl cell-based assay [7]: 3 nM
IC50, neutralization in TZM-bl cell-based assay [8]: 0.39 nM
IC90, neutralization in TZM-bl cell-based assay [8]: 5.2 nM
IC90, neutralization in TZM-bl cell-based assay [9]: 10 nM
IC50, neutralization in TZM-bl cell-based assay [10]: 0.66 nM
IC50, neutralization of pseudotyped HIV-1 [11]: 0.26 nM
IC90, neutralization of pseudotyped HIV-1 [11]: 0.83 nM
IC50, neutralization in TZM-bl cell-based assay [12]: 0.33 nM
IC90, neutralization in TZM-bl cell-based assay [12]: 2.6 nM
IC90, neutralization of pseudotyped HIV-1 [13]: 6.6 nM
IC50, neutralization of pseudotyped HIV-1 [14]: 0.25 nM
IC90, neutralization of pseudotyped HIV-1 [14]: 2.6 nM
IC50, neutralization in TZM-bl cell-based assay [15]: > 167 nM
IC90, neutralization in TZM-bl cell-based assay [15]: > 167 nM
IC50, neutralization of pseudotyped HIV-1 [16]: 0.28 nM
IC90, neutralization of pseudotyped HIV-1 [16]: 5.6 nM
IC50, neutralization of pseudotyped HIV-1 [17]: 0.11 nM
IC90, neutralization of pseudotyped HIV-1 [17]: 0.85 nM
IC50, neutralization of pseudotyped HIV-1 [18]: 0.34 nM
IC90, neutralization of pseudotyped HIV-1 [18]: 4.4 nM
IC50, neutralization of pseudotyped HIV-1 [19]: 0.53 nM
IC90, neutralization of pseudotyped HIV-1 [19]: 9.5 nM
IC50, neutralization of pseudotyped HIV-1 [20]: 0.36 nM
IC90, neutralization of pseudotyped HIV-1 [20]: 4.3 nM
IC50, neutralization in TZM-bl cell-based assay [21]: > 167 nM
IC90, neutralization in TZM-bl cell-based assay [21]: > 167 nM
IC90, neutralization in TZM-bl cell-based assay [22]: 31 nM
IC50, neutralization of pseudotyped HIV-1 [23]: 0.37 nM
IC50, neutralization of pseudotyped HIV-1 [24]: 0.31 nM
IC90, neutralization of pseudotyped HIV-1 [24]: 0.82 nM
IC50, inhibition of Env-mediated cell-cell fusion [25]: 2.6 nM
IC50, neutralization of pseudotyped HIV-1 [25]: 0.11 nM
IC90, inhibition of Env-mediated cell-cell fusion [25]: 24 nM
IC90, neutralization of pseudotyped HIV-1 [25]: 0.56 nM
IC50, neutralization of pseudotyped HIV-1 [26]: 0.33 nM
IC90, neutralization of pseudotyped HIV-1 [26]: 3.8 nM

b12 (antibody)
IC50, neutralization in TZM-bl cell-based assay [2]: > 167 nM
IC90, neutralization in TZM-bl cell-based assay [2]: > 167 nM
IC50, neutralization in TZM-bl cell-based assay [3]: 81 nM
IC90, neutralization in TZM-bl cell-based assay [3]: > 167 nM
IC50, neutralization in TZM-bl cell-based assay [5]: 138 nM
IC90, neutralization in TZM-bl cell-based assay [5]: > 167 nM
IC50, neutralization in TZM-bl cell-based assay [6]: 12 nM
IC90, neutralization in TZM-bl cell-based assay [6]: > 167 nM
IC50, neutralization in TZM-bl cell-based assay [7]: 117 nM
IC90, neutralization in TZM-bl cell-based assay [7]: > 167 nM
IC90, neutralization in TZM-bl cell-based assay [8]: 3.6 nM
IC50, neutralization in TZM-bl cell-based assay [9]: 4 nM
IC90, neutralization in TZM-bl cell-based assay [9]: 19 nM
IC50, neutralization in TZM-bl cell-based assay [10]: 82 nM
IC90, neutralization in TZM-bl cell-based assay [10]: > 167 nM
IC50, neutralization in TZM-bl cell-based assay [12]: > 167 nM
IC90, neutralization in TZM-bl cell-based assay [12]: > 167 nM
IC90, neutralization in TZM-bl cell-based assay [15]: 30 nM
IC50, neutralization in TZM-bl cell-based assay [21]: 0.085 nM
IC90, neutralization in TZM-bl cell-based assay [21]: 1.6 nM
IC90, neutralization in TZM-bl cell-based assay [22]: > 167 nM
